This note sets out measurements from publication PMC10411744 (PLOS Pathogens, 2023).

Numbering of substitutions follows the chain as printed. Numbers in names are those of the source.

Assay [1] addresses X31 (H3N2) trimeric full-length HA (prefusion stabilized HA) (influenza A virus X31 (H3N2), biotin (biotinylated for capture on streptavidin)). Put plainly: ELISA. To be noted: both partners purified.
The next assay addresses HA of H1 A/Narita/1/2009 (influenza A virus A/Narita/1/2009 (H1)). Put plainly: ELISA. To be noted: both partners purified.

B1: LAH31 with light chain position 92 reverted to germline (R92L) (antibody, V domains shown)
VH: QVQLEQSGAEVKKPGSSVKVSCKASGPMFSRSAFSWVRQAPGQGLEWMGRIIPTVDLKNYAQKFQGRVTFTADKSTATSYMELRSLKSEDTAVYYCARMGSGSSYYGMDVWGLGTTVTVSS
VL: DIVMTQSPLSLPVIPGEPASISCRSSQSLLQSNGNNYLDWYLQKPGQSPQLLIYLGSNRASGVPDRFSGSGSGTDFTLTISRVEAEDVGVYYCLQALQSSVLTFGGGTKLEIK
notes: IgG1
Regarding B1, the binding result in assay [1] is given as “binds”.

B2: LAH31 with light chain position 94 reverted to germline (Ser94 to Thr94) (antibody, V domains shown)
VH: B1 VH
VL: B1 VL with L97R, S99T
As to B2, the binding result (in assay [1]; in the assay with HA of H1 A/Narita/1/2009) was “binds” throughout.

B3: LAH31 mouse IgG2c LALA-PG mutant (antibody, V domains shown)
VH: B1 VH
VL: B1 VL with L97R
For B3, in assay [1], the binding result is “binds”.

B4: LAH31 mouse IgG2c KA mutant (antibody, V domains shown)
VH: B1 VH
VL: B1 VL with L97R
As to B4, the binding result in assay [1] is on record as “binds”.

B5: LAH31 mouse IgG2c LALA mutant (antibody, V domains shown)
VH: B1 VH
VL: B1 VL with L97R
As to B5, in assay [1], the binding result is listed as “binds”.

B6: LAH31 with light chain position 95 reverted to germline (Ser95 to Pro95) (antibody, V domains shown)
VH: B1 VH
VL: B1 VL with L97R, S100P
On to B6, for which the binding result (in assay [1]; in the assay with HA of H1 A/Narita/1/2009) was “binds” in each case.
